Source: a protein production outcome set (Wang et al. 2014)

Assay: label from the status in PepcDB records

| Sequence | protein production |
| --- | --- |
| MPISAHYGLTVLIWGLTWTAIRLQVESASVDLAVFYRFVMASVVALAVLAVTRRLSRLTLGQHGWLFLQGLTLYSVNFLLIYRAAESMTSGLLAVVFSLAALFNAFNGWLWLRTRPTARLYPAVALGVTGVALLFWHDLQLGNATGASILFAVAGTFWFSMGNLVSVKVKAAGVPLFTANAWAMVYGALILGLWCLIQGVEWMLPATSVFWGATVFLAVPGSIVAFYCYITVIQVLGADKAGYAAVLFPVVALSVSTWLEGFEWTTPAMLGALLAILGNYVLFRPGKRQSVSATSVPEQRT | failed |
| MPITIGNGFLKSEILTNSPRNTKEAWWKVLWEKIKDFFFSTGKAKADRCLHEMLFADRTPTRERLTEIFFELKELACASQRDRFQVYNPNENDDTIILRIMDQNEENELLRITQNTDAFTCEVMGNAYFLIKDRPDILKPHPQMTAMINRRYSEIVDYPLPSTLCLNPAGAPTLSVPLDNIEGYLYSEWRKGNLDEWKTQEKVTYLAAKIQSGIEKTTRILQHANISESTQQSAFLETMAMCGLKQLEIPPPHTHIPIEKMVKEVLLADKTFQAFLVTDPSTSQSMLAEIVEAISDQVFHAIFRIAPQAIQKMAEEQLTTLHVRSEQQSGCLCCFL | failed |
| MPKEKYEPPDPRRMYTIMSSEEAANGKKSHWAELEISGKVRSLSSSLWSLTHLTALHLSDNSLSCIPSDIAKLHNLVYLDLSHNQIQSLPAELGNMVSLRELHLNYNQLRVLPFELGKLFQLQTLSLKGNPLTQDILNLCLEPDGTRRLLNYLLDNLSVSTEQPPPRSWIMLQEPDRTRPTALFSVMCYNVLCDKYATRQLYGYCPSWALNWDYRKKAIIQEILSCNADIISLQEVETEQYYSFFLVELKERGYNGFFSPKSRARTMSEQERKHVDGCAIFFKTEKFTLVQKHTVEFNQLAMANSEGSEAMLNRVMTKDNIGVAVLLELRKELIEMSSGKPHLGTEKQLILVANAHMHWDPEYSDVKLVQTMMFLSEVKNIIDKASRSLKSSVLGECGTIPLVLCADLNSLPDSGVVEYLSTGGVETNHKDFKELRYNESLTNFSCNGKNGMTNGRITHGFKLKSAYENGLMPYTNYTFDFKVSFHSLIFISMFCNFLSLKHQCML | failed |
| MPKERVDVLAYKQGLFETREQAKRGVMAGLVVNVINGERYDKPGEKIDDGTELKLKGEKLRYVSRGGLKLEKALAVFNLSVEDMITIDIGASTGGFTDVMLQNGAKLVYAVDVGTNQLVWKLRQDDRVRSMEQYNFRYAEPVDFTEGLPSFASIDVSFISLNLILPALAKILVDGGQVVALVKPQFEAGREQIGKNGIVRESSIHEKVLETVTAFAVDYGFSVKGLDFSPIQGGHGNIEFLAHLEKTDSPQNDVPTSIKEVVAQAHKEFKKNEEERSFGVNPKDCPRK | not failed |
| MPKILWKSLHLCFPSNLTKCYSSPCIPPSSADPDGIIQPNRPSIVLLNNFNLLYHNDNHHHPHRVIDLPSSSTTTTPAATSSSSTSSYESDISPDVSAAFASRRFFFSSPGRSNAITDSPEPRSREFSDNYDDATITSTKKKKKKVYDNSVTTTTTRLISGGTAVTQHVDSPDPLTDFRRSMQEMIDAAIDAGELSRDPNDGYDFLDELLLTYLSLNPADTHKFVIRAFSDILVSLLSEERRIC | failed |
| MPKIPITLITGFLGSGKTSFLSEYLNQTDHQGVALIINEIGQAALDQRILSVQYCGEKMLYLNAGCVCCNKRLDLVESLKATLNNYEWHGEILRRIIIETTGLANPAPILWTILSDTFLGVHFEIQSVVACVDALNAREHLTNNEAKEQIVFADSVLLTKTDLQNDSAALTKLKERIQALNPSAEIFDKRAIDYESLFSRKNRARNFMPRMPKDSHSQGFETLSINFEGTMEWSAFGIWLSLLLHQYGTQILRIKGIIDIGSGFLVSINGVMHVIYPPKHILKDQNGSNLVFIMRHLEREKILNSLKGFKDFLGIKGFETQLEHHHHHH | not failed |
| MPKIWTERIFDDPEIYVLRIDDDRIRYFEAVWEIPEGISYNAYLVKLNGANVLIDGWKGNYAKEFIDALSKIVDPKEITHIIVNHTEPDHSGSLPATLKTIGHDVEIIASNFGKRLLEGFYGIKDVTVVKDGEEREIGGKKFKFVMTPWLHWPDTMVTYLDGILFSCDVGGGYLLPEILDDSNESVVERYLPHVTKYIVTVIGHYKNYILEGAEKLSSLKIKALLPGHGLIWKKDPQRLLNHYVSVAKGDPKKGKVTVIYDSMYGFVENVMKKAIDSLKEKGFTPVVYKFSDEERPAISEILKDIPDSEALIFGVSTYEAEIHPLMRFTLLEIIDKANYEKPVLVFGVHGWAPSAERTAGELLKETKFRILSFTEIKGSNMDERKIEEAISLLKKELE | not failed |
| MPKKLGPKSQRQRGAVAPLTQVQQAACSPTYKQAKRNARSYQGRRRRRRCSQNTTSRVPSQLQAVDSSSASCRTYKNSEELRSRIVSGIITPIHEQWEKANVSSPHREFPPATAREVDPLRIPPHHPHTSRQPPWCDPLGPFVVGGEDLDPFGPRRGGMIVDPLRSGFPRALIDPSSGLPNRLPPGAVPPGARFDPFGPIGTSPPGPNPDHLPPPGYDDMYL | failed |
| MPKLNLTSIDVLLSDDSDRRQLACKSNHSTVSSLPAMDSRESITSTSPEVAILLCTYHGQRYLPEQLASFEVQSHSNWKVWASDDGSEDGTHAILDAYSRKWPEGRLSICSGPSEGFAANFISLTCKDSIQADFYAYSDQDDIWNVNKLARAVQWLETVPVNIPALYCSRTRLVDSDDNEIGISPLFVRPPSFANALMQNIGGGNTMVFNNAARELFCEAGENTLVVAHDWWAYIAVTGCGGQVFYDREPTLRYRQHNGNLIGTNSNWSARFKRIHMLFQGEFRRWSDINIAALGALEHKLTPENREILQRFASGRKMSLIPRLIQFKRAGIYRQTLFSNFGLVVAAIFGKV | failed |
| MPKLTKRILDAAGARPTPYFLWCSDLKGFGVRIFPSGRRVYYADYRTAAGMRRRMSLGEHGKLTVDEARRLAITTLGDVIRGDDPIEERVTRRKSLTIAELCRRYLEAAGAGLVLGRGRKPKKATTLVSDRGRIEHHIVPLLGSRLVRDLTTAEVQRFVRDVQAGRTAKRYKTKARGMVLVEGGAGAAARTAGLLGGIMSYAIGEGVIALNPVRGVKRPADRKKDRRLSPEEYRALGRVLAEAEGDRESWQAVSSIQLLCLTGCRMREIANLRWTEVDFAGRCLRLDNTKEGRSIRPLGQAAVALLRQIEERRAGPYVLPATRGEGGFGGIPDAIERYSKRAGLPGIGAHTLRHSFASTAADLGCSDSTIGAMLGHAGHGVTSRYIHHLDAVLIMAADRVTTAMAGWLKDRYAERLEPAYPASRTVPLS | failed |
| MPKMIMVNKKASESQVMELEKRNYNNPVVLCGFAGSTPTGVLAASYIVETLGMHQVAHLISQHIPPVAVFVGGKLRHPFRIYANNSNTVLVAMCEVPISSAHIYEISNTLMNWIDQVGASEIVIMEGSPANGIPEERPVFAVAEKPKLDKFKKAGIQPADSAIIAGMGGGILNECLVRKITGLSFITPTSVDIPDPGAVLSIIEAINKAYNLKIKTDLLEEQVKALDEQIKKIEEQYKELQEKQKEPQSMYG | not failed |
| MPKNDLLLRSLRGEPIGRFPVWLMRQAGRYMPEYRKIRNRVKNFLELCKNVDLATEISLLPLKILGVDAIIIFSDILVPLEPLGVKVEFVEGEGPKLSWSGKVSDLKKYDPSQNAYVYEIIKRVKEAQDEVPVIGFAGAPFTLLSYLIEGGASKDFKSTKLFMWENPKEYKRLMDILTETVLAYLKEQIKAGADVVQIFDSWVNNLSLEDYGEYVYPYVNYLISELKDFSDTPVIYFFRGSSSFIDLAVDYRADALSVDWSVDIPELFKIYDKGFQGNLEPAVLYASEEVIEEKTLGLLRRIPVKTRYVFNLGHGLAPDMELEKVKYLVDLVKSFPLT | not failed |
| MPKQTGNARNPFVLLALFILVCSGGCATYPISHDKAVPVARGALFEYPYFHDQVTGIAVSGQGRIFVNFPRWDKDPLYSVAEVLPDGSLRPYPDHGWNRWGADETAHPEAHFICVQSVFVDHSDFLWILDPASPAFNGVVPGGAKLVKVNLKTDQVERVIPFAPSAAPHESYLNDVRIDPEGNFAFITDSGKGAIVVVDLESGKARRLLSGHPSTKAEPGYVPVIEGKELRNEDGTVPKIHADGIALDSRGEYLYYHALVGRTLYRIRTSFLKDPSLPEKDLENHVERIAETGAADGMLMDAQDNLYLTALEENAVKRYRPSEPTLNTIIQGGLHWPDSLAISPDNYLYVTDSQINLAPRFNHGKDLRIIPYKFFKTWLMPFSHDGLLPP | failed |
| MPKRRGHGEGTVYQRPDGRWTAQITVGIDHEGKQRRLTLYGKSKKEVLEKLTQALYQQQNGGFIEPSKITVEQWLNRWLTDYAKPHLRQSTWESYETVLRLHVIPTLGSIPLKKLQPADIQRLYASKLESGLSPTRVRYIHVVLHEAMSQARESGLLLQNPTEAAKPPRHPKKKVQPLNPEQVKRFLETAKQDPLYPAFLLALGTGLRRGEILGLRWQDLDLQKGILQVRQSLIRTREGLKFEEPKTEKSRRQIPLPPSVVAALKRHKAWVNQNKLILGPDYEDHDLVFPVENGRPRDPKGFAEYFNRLLDKAGLPHIRLHDLRHTHATLLLLEGVHPKVVQERLGHSTVSITLDIYSHILPGLQEKAAERIDGLLQPKENPSPKEGTIK | failed |
| MPKSKEMEEEMKENSQDKNFMYKLAEFIVDKRNLFFLIYIIALVFCIFSRNWVKVENDVTKYLPDSTETRQGLTVMNDQFVTYGTAQVLLANISYDRAQEAADMIEDINGVTSVTFDNTEDHYKGTSALLDVTFDGEEEDQISIDAMNEIKDKLTGYDVYYSTSVANDDSANLESEMQVVTAIAAVIIVVVLLLTSKSYAEVPVLLITFIAAALLNMGTNFLLGTISFISNSVTIVLQLALAIDYAIILCHRYTEERENLPAREATITALSKAIPEISSSSLTTVSGLLALAFMQFKIGEDLAVVLIKAIILSLISVFTLMPGLIMVFSKWMDKTVHKNLIPSISAVGKFAIKTKYIIPPIFAAVIIVACVFANMCPYCFSTGSTSTPRKSESTIAQEKIDSTFGSRNMIALVVPAGNYEAEKNLLADLDACDEVKSTQGLANTEAMDGYMLTDSLTPREFSELVGLDYEVAQLLYSAYAINQENYGEVINSSSKYSVPLIDMFEFLLDEIDKGYVTLEGDLKDQMDDLSGQLDKALLQLKTDDYSRLVVYLNLPEEGDETFAFLDRVHEMMAKYYTDNYYVVGNSTSDYDLSSSFSRDNLVISILSALFVIIILLFTFKSAGLPVLLILVIQGSIWINFSFPYLMDSPLYFLGYLVVNSIQMGANIDYAIVISSRYDDLKKQLPIKEAIIETLNQAFPTIITSGSILAAAGILISFLSTNGVISAIGTCLGRGTIISIILVMGVLPQILYLGDVIIEKTRFSINTDNLIQNTGGTMVINGRMRGYVSGIIDAEIHGVIKGEVKGQIDVNNIDVIKKEEPEDGGDGNEEA | failed |
| MPKSPHKLFKANSFWKENNLILREIKHFRKIAILAVIFSFLAASFEGVSIGFLLSFLQKLTSPNDPIQTGISWVDMILAADAWPIPPIYRISLLILLSTWMRATFNYFGGVYTESAQLNLADRLHKQIFEQLQALRLSYFAQTRSGELINTITTEIERIKQGFSGLAFVLTRIMTVCVYFVVMFSISWQLSIISVLIFLLLAVGLSTLNKRVRETSFGISHANAQFTAVAVEFINGIRTIQAFGTQEFERQRFYKASTNQLNAAIKVVLAWTLVKPIAEGIATTVLISLIVISFATFTLPVASLLTFFFVLVRVIPNIQDINGTVAFLSTLQGSSENIKNILQTNNKPYLKNGKLHFQGLKRSIDLVSVDFGYTADNLVLNNITLTIERGKTTALVGASGAGKTTLADLIPRFYDPTEGQILVDGLDVQYFEINSLRRKMAVVSQDTFIFNTSIRDNIAYGTSGASEAEIREVARLANALQFIEEMPEGFDTKLGDRGVRLSGGQRQRIAIARALLRDPEILILDEATSALDSVSERLIQESIEKLSVGRTVIAIAHRLSTIAKADKVVVMEQGRIVEQGNYQELLEQRGKLWKYHQMQHESGQTNS | failed |
| MPKTLLIPGLDGSPAAHWQQWWALRDPDALLLDLSDVSRPVPAVWEIEVAGAILQHPGAILVGHSLGAILIARLLAKWPHLKVGGAILVAPAEPRHSDRTESFGPIFEESLGVPAYVVSSRNDPWMSFTQAERLARAWRADVVDLGFAGHINVDSGFGPWPGGVVLRDELARRPVP | failed |
